US20250115663A1 (CELLDEX THERAPEUTICS, published 2025)

Experiments:
[1] = molecular target: T1, kappa-sCD40-Flag fusion protein, fragment amino acids 36-130 (human, UniProt P25942 56-150); experiment: ELISA, kappa-sCD40-Flag fragment captured on anti-Flag
T1 construct: not shown: N-terminal human kappa light chain; C-terminal Flag tag
Procedure: (§1) 1 μg/ml of purified kappa-sCD40-Flag fusion proteins or CHO cell supernatants containing the sCD40 fusion proteins were captured to microtiter plates that were pre-coated with 5 μg/ml mouse anti-Flag antibody (Sigma) in PBS and blocked with 5% bovine serum albumin in PBS. Following incubation with the CD40 antibody, the microplates were washed with PBS/Tween, and incubated with a goat anti-human IgG Fc polyclonal reagent conjugated to horseradish peroxidase. After washing, the plates were developed with HRP substrate, and analyzed at OD 450-650 using a microtiter plate reader. An ELISA with a goat anti-human IgG Fab2-HRP to measure kappa chain binding was carried out in parallel to validate the sCD40 fusion protein expression from different transfections.

[2] = molecular target: T2, kappa-sCD40-Flag fusion protein, fragment amino acids 1-94 (human, UniProt P25942 21-114); experiment: ELISA, kappa-sCD40-Flag fusion (~2 ug/ml) captured on anti-Flag, anti-human IgG Fc-HRP
T2 construct: also called sCD40aa 1-94; not shown: N-terminal human kappa light chain; C-terminal Flag tag
Procedure: as §1, with “containing” for “1 μg/ml of purified kappa-sCD40-Flag fusion proteins or CHO cell supernatants containing”

[3] = molecular target: T3, kappa-sCD40(1-94)-Flag mutant fragment A (multiple mutations of residues 1-5) (human, UniProt P25942 26-114); experiment: as above
T3 construct: The text says only multiple mutations of residues 1-5 (human to mouse differences); that mutant A carries exactly these is inferred; also called A (1-5); not shown: N-terminal human kappa light chain; C-terminal Flag tag
Procedure: as §1, with “containing” for “1 μg/ml of purified kappa-sCD40-Flag fusion proteins or CHO cell supernatants containing”

[4] = molecular target: T4, kappa-sCD40(1-94)-Flag mutant fragment D (multiple mutations of residues 33-36) (human, UniProt P25942 21-114); experiment: as above
T4 construct: The text says only multiple mutations of residues 33-36 (human to mouse differences); that mutant D carries exactly these is inferred; also called D (33-36); not shown: N-terminal human kappa light chain; C-terminal Flag tag
T4 chain: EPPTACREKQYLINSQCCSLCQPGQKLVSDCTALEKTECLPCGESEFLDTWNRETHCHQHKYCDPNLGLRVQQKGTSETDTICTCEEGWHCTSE
Procedure: as §1, with “containing” for “1 μg/ml of purified kappa-sCD40-Flag fusion proteins or CHO cell supernatants containing”

[5] = molecular target: T5, kappa-sCD40(1-94)-Flag point mutant E1G (human, UniProt P25942 22-114); experiment: as above
T5 construct: not shown: N-terminal human kappa light chain; C-terminal Flag tag
Procedure: as §1, with “containing” for “1 μg/ml of purified kappa-sCD40-Flag fusion proteins or CHO cell supernatants containing”

[6] = molecular target: T6, kappa-sCD40(1-94)-Flag point mutant P2Q (human, UniProt P25942 21-114); experiment: as above
T6 construct: not shown: N-terminal human kappa light chain; C-terminal Flag tag
T6 chain: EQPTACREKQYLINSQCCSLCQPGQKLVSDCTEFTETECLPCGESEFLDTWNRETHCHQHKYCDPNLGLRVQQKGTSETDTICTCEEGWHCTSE
Procedure: as §1, with “containing” for “1 μg/ml of purified kappa-sCD40-Flag fusion proteins or CHO cell supernatants containing”

[7] = molecular target: T7, kappa-sCD40(1-94)-Flag point mutant P3S (human, UniProt P25942 21-114); experiment: as above
T7 construct: not shown: N-terminal human kappa light chain; C-terminal Flag tag
T7 chain: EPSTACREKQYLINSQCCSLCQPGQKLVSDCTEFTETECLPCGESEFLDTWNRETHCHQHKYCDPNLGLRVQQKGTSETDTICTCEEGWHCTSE
Procedure: as §1, with “containing” for “1 μg/ml of purified kappa-sCD40-Flag fusion proteins or CHO cell supernatants containing”

[8] = molecular target: T8, kappa-sCD40(1-94)-Flag point mutant T4V (human, UniProt P25942 21-114); experiment: as above
T8 construct: not shown: N-terminal human kappa light chain; C-terminal Flag tag
T8 chain: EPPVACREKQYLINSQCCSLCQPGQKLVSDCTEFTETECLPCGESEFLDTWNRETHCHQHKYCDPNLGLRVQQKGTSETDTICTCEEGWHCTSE
Procedure: as §1, with “containing” for “1 μg/ml of purified kappa-sCD40-Flag fusion proteins or CHO cell supernatants containing”

[9] = molecular target: T9, kappa-sCD40(1-94)-Flag point mutant A5T (human, UniProt P25942 21-114); experiment: as above
T9 construct: not shown: N-terminal human kappa light chain; C-terminal Flag tag
T9 chain: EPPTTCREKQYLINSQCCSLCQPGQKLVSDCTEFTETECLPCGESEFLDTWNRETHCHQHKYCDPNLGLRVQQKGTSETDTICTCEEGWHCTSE
Procedure: as §1, with “containing” for “1 μg/ml of purified kappa-sCD40-Flag fusion proteins or CHO cell supernatants containing”

[10] = molecular target: T10, kappa-sCD40(1-94)-Flag point mutant E33A (human, UniProt P25942 21-114); experiment: as above
T10 construct: not shown: N-terminal human kappa light chain; C-terminal Flag tag
T10 chain: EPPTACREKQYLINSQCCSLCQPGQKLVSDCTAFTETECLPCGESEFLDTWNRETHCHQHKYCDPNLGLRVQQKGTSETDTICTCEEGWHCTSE
Procedure: as §1, with “containing” for “1 μg/ml of purified kappa-sCD40-Flag fusion proteins or CHO cell supernatants containing”

[11] = molecular target: T11, kappa-sCD40(1-94)-Flag point mutant F34L (human, UniProt P25942 21-114); experiment: as above
T11 construct: not shown: N-terminal human kappa light chain; C-terminal Flag tag
T11 chain: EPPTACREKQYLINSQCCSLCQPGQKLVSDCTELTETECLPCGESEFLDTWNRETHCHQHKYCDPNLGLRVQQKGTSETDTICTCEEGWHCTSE
Procedure: as §1, with “containing” for “1 μg/ml of purified kappa-sCD40-Flag fusion proteins or CHO cell supernatants containing”

[12] = molecular target: T12, kappa-sCD40(1-94)-Flag point mutant E36K (human, UniProt P25942 21-114); experiment: as above
T12 construct: not shown: N-terminal human kappa light chain; C-terminal Flag tag
T12 chain: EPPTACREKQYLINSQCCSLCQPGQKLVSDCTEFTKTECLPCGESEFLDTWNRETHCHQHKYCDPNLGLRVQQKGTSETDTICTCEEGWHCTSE
Procedure: as §1, with “containing” for “1 μg/ml of purified kappa-sCD40-Flag fusion proteins or CHO cell supernatants containing”

T1 sequence (P25942 56-150): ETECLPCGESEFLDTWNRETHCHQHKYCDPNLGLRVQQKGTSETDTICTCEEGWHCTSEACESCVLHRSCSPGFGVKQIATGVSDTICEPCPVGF

B1: anti-CD40 human monoclonal antibody 3C3 (antibody, human IgG2, kappa, V domains shown)
VH: QVQLVESGGGVVQPGRSLRLSCAGSGFIFSRYGMYWVRQAPGKGLEWVAVIWYDGSYKYYADSVKGRFTISRDNSKNTLYLQMNSLRAEDTAVYYCARESPWYYFDYWGQGTLVTVSS
VL: DIQMTQSPSSLSASVGDRVTITCRASQGISNYLAWYQQKPGKVPKLLIYAASTLQSGVPSRFSGSGSGTDFTLTISSLQPEDVATYYCQKYKSAPFTFGPGTKVDIKR
notes: Human IgG2, C-terminal lysine removed; also called anti-CD40 mAb 3C3; CD40 antibody 3C3
With B1 the binding result [1] was “no binding (tested: ~1 ug/ml fragment)”, the “Average OD” value [2] was 2.16 OD 450-650 and the “Average OD” value [3] was 0.167 OD 450-650. The “Average OD” value [4] was 0.124 OD 450-650, the “Average OD” value [5] was 1.97 OD 450-650 and the “Average OD” value [6] was 2.08 OD 450-650. For the same binder, the “Average OD” value [7] was 2.01 OD 450-650, the “Average OD” value [8] was 2.15 OD 450-650 and the “Average OD” value [9] was 1.13 OD 450-650. For the same binder, the “Average OD” value [10] was 1.62 OD 450-650, the “Average OD” value [11] was 1.88 OD 450-650 and the “Average OD” value [12] was 1.37 OD 450-650.
